T1: APBA2_1, Q99767
T1 sequence (Q99767 563-664, limits assumed, looked up): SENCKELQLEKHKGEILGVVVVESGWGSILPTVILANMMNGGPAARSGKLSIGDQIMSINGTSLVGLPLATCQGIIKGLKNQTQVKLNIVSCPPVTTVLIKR

T2: APBA3_1, O96018
T2 sequence (O96018 389-490, limits assumed, looked up): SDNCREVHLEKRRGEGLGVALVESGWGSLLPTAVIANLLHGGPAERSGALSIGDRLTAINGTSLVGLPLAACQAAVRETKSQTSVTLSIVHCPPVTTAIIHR

T3: DFNB31_2, Q9P202
T3 sequence (Q9P202 274-371, limits assumed, looked up): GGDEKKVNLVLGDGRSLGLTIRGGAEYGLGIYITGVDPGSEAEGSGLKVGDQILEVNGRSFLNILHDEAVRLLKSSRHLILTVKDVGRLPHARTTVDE

T4: DVL3, Q92997
T4 sequence (Q92997 244-331, limits assumed, looked up): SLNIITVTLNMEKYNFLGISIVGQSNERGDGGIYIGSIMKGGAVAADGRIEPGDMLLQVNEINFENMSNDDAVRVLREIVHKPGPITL

T5: HTRA3, P83110
T5 sequence (P83110 354-453, limits assumed, looked up): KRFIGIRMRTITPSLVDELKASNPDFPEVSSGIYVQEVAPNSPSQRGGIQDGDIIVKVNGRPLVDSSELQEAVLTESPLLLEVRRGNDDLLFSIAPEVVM

T6: NHERF3_3, Q5T2W1
T6 sequence (Q5T2W1 238-333, limits assumed, looked up): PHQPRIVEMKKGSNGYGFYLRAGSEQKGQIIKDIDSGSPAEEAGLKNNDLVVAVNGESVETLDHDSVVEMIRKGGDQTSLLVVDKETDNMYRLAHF

T7: PARD3B_1, Q8TEW8
T7 sequence (Q8TEW8 196-299, limits assumed, looked up): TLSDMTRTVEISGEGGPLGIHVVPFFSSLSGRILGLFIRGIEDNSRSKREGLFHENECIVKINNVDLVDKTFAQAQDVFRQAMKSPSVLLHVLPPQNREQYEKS

T8: PDZD7_3, Q9H5P4
T8 sequence (Q9H5P4 857-944, limits assumed, looked up): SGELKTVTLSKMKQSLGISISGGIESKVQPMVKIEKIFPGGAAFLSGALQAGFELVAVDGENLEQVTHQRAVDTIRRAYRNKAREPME

T9: SIPA1L2, Q9P2F8
T9 sequence (Q9P2F8 945-1036, limits assumed, looked up): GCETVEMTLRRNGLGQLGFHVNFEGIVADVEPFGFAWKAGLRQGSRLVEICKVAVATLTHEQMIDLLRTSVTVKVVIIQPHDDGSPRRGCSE

T10: SNTA1, Q13424
T10 sequence (Q13424 82-180, limits assumed, looked up): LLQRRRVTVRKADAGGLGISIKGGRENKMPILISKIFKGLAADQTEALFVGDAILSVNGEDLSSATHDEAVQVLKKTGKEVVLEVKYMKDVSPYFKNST

T11: SNTG1, Q9NSN8
T11 sequence (Q9NSN8 52-150, limits assumed, looked up): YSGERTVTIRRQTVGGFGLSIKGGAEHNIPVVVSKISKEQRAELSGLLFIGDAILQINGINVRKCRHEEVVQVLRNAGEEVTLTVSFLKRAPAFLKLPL

T12: TJP3_3, O95049
T12 sequence (O95049 375-456, limits assumed, looked up): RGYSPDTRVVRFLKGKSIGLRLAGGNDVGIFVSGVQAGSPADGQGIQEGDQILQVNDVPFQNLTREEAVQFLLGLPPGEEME


Experiments:
Assay in all cases: holdup assay
Parameters in all cases: key: below the threshold = too weak to quantify, mostly under pKd 3.1 to 4
Settings in all cases: plain residues with an end cap or a label only (N-terminal biotin on a linker: ado-ado)
[1] = molecular target: T1, APBA2_1, Q99767
[2] = molecular target: T2, APBA3_1, O96018
[3] = molecular target: ARHGEF12, Q9NZN5-2
[4] = molecular target: CASK, O14936
[5] = molecular target: T3, DFNB31_2, Q9P202
[6] = molecular target: DLG2_2, Q15700
[7] = molecular target: T4, DVL3, Q92997
[8] = molecular target: GORASP1, Q9BQQ3
[9] = molecular target: GRIP2_3, Q9C0E4
[10] = molecular target: GRIP2_7, Q9C0E4
[11] = molecular target: T5, HTRA3, P83110
[12] = molecular target: LIMK2, P53671
[13] = molecular target: MAGI1_2, Q96QZ7
[14] = molecular target: T6, NHERF3_3, Q5T2W1
[15] = molecular target: NHERF4_2, Q86UT5
[16] = molecular target: T7, PARD3B_1, Q8TEW8
[17] = molecular target: PARD3_3, Q8TEW0
[18] = molecular target: T8, PDZD7_3, Q9H5P4
[19] = molecular target: SCRIB_1, Q14160
[20] = molecular target: SCRIB_3, Q14160
[21] = molecular target: T9, SIPA1L2, Q9P2F8
[22] = molecular target: T10, SNTA1, Q13424
[23] = molecular target: T11, SNTG1, Q9NSN8
[24] = molecular target: TJP1_2, Q07157
[25] = molecular target: TJP2_1, Q9UDY2
[26] = molecular target: T12, TJP3_3, O95049

Sequence of CASK, O14936 (O14936 487-570): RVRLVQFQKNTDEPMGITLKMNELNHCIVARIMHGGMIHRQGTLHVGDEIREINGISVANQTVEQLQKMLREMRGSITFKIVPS
Sequence of MAGI1_2, Q96QZ7 (Q96QZ7 456-580): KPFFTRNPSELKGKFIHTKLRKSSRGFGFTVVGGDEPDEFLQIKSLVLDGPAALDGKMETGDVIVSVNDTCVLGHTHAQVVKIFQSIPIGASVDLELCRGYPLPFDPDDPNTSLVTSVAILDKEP
Sequence of SCRIB_3, Q14160 (Q14160 999-1103): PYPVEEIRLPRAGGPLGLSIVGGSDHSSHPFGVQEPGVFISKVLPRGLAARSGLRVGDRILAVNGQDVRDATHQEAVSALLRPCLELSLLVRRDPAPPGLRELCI
Sequence of TJP2_1, Q9UDY2 (Q9UDY2 24-128): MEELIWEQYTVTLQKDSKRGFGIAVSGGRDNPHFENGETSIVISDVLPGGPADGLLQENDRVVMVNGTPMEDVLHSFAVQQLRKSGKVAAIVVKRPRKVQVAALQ
Sequence of PARD3_3, Q8TEW0 (Q8TEW0 582-685): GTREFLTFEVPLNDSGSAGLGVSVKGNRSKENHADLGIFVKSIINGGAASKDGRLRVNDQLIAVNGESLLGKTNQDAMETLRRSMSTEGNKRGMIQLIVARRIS
Sequence of GRIP2_7, Q9C0E4 (Q9C0E4 934-1023): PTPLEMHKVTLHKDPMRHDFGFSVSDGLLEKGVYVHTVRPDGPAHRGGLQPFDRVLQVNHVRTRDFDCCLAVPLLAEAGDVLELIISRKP
Sequence of NHERF4_2, Q86UT5 (Q86UT5 220-308): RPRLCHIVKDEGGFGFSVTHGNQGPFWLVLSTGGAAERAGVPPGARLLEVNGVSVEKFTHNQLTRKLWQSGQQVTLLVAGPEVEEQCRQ
Sequence of DLG2_2, Q15700 (Q15700 189-283): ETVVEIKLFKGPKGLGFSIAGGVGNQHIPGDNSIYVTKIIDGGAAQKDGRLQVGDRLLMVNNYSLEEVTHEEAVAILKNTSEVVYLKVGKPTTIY
Sequence of TJP1_2, Q07157 (Q07157 181-274): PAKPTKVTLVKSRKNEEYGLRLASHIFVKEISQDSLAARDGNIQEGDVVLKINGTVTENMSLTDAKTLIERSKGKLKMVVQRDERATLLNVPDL
Sequence of SCRIB_1, Q14160 (Q14160 718-814): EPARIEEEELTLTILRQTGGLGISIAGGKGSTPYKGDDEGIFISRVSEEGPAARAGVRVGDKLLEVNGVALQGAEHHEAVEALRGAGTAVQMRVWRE
Sequence of LIMK2, P53671 (P53671 143-248): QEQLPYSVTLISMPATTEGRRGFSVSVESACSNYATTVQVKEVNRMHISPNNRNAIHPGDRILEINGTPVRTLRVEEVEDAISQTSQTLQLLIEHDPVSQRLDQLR
Sequence of ARHGEF12, Q9NZN5-2 (Q9NZN5 other isoform, or with tags, fused parts or gaps): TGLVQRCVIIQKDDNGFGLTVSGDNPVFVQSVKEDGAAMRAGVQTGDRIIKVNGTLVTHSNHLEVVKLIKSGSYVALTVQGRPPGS
Sequence of GORASP1, Q9BQQ3 (Q9BQQ3 1-208): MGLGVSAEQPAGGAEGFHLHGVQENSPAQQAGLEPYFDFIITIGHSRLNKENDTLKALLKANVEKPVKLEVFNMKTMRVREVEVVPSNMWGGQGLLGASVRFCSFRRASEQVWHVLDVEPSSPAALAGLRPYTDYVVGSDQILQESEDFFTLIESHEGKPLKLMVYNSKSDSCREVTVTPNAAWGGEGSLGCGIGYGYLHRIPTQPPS
Sequence of GRIP2_3, Q9C0E4 (Q9C0E4 238-339): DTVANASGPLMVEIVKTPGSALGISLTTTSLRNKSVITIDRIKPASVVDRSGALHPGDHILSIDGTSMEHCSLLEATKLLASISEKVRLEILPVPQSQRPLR

Binder	pKd [1]	pKd [2]	pKd [3]	pKd [4]	pKd [5]	pKd [6]	pKd [7]	pKd [8]	pKd [9]	pKd [10]	pKd [11]	pKd [12]	pKd [13]	pKd [14]	pKd [15]	pKd [16]	pKd [17]	pKd [18]	pKd [19]	pKd [20]	other results
QMNQTLPVQV [EPHB3, P54753]	below the threshold	below the threshold	below the threshold	below the threshold	below the threshold	below the threshold	below the threshold	3.58	below the threshold	3.58	below the threshold	below the threshold	below the threshold	below the threshold	3.52	3.78	3.51	below the threshold	below the threshold	3.48	pKd [21]: 3.5; pKd [22]: below the threshold; pKd [23]: below the threshold; pKd [24]: 3.72; pKd [25]: below the threshold; pKd [26]: below the threshold
QKNRKAQEDL [CES3, Q6UWW8]	below the threshold	below the threshold	below the threshold	below the threshold	below the threshold	below the threshold	below the threshold	below the threshold	below the threshold	below the threshold	below the threshold	below the threshold	below the threshold	below the threshold	below the threshold	below the threshold	below the threshold	below the threshold	below the threshold	below the threshold	pKd [21]: below the threshold; pKd [22]: below the threshold; pKd [23]: below the threshold; pKd [24]: below the threshold; pKd [25]: below the threshold; pKd [26]: below the threshold

The next lines start with results.

pKd [1]	pKd [2]	pKd [3]	pKd [4]	pKd [5]	pKd [6]	pKd [7]	pKd [8]	pKd [9]	pKd [10]	pKd [11]	pKd [12]	pKd [13]	pKd [14]	pKd [15]	pKd [16]	pKd [17]	pKd [18]	pKd [19]	pKd [20]	Binder	other results
below the threshold	below the threshold	3.53	below the threshold	below the threshold	below the threshold	below the threshold	4.12	below the threshold	below the threshold	4	below the threshold	below the threshold	below the threshold	below the threshold	3.62	4.98	below the threshold	below the threshold	3.48	DDEDRLVIEI [ZNF831, Q5JPB2]	pKd [21]: below the threshold; pKd [22]: below the threshold; pKd [23]: below the threshold; pKd [24]: below the threshold; pKd [25]: below the threshold; pKd [26]: below the threshold
below the threshold	below the threshold	3.47	below the threshold	below the threshold	4.72	below the threshold	below the threshold	below the threshold	below the threshold	below the threshold	below the threshold	4.37	below the threshold	below the threshold	below the threshold	below the threshold	4.12	5.2	5.05	PKRSFIESNV [TANC1, Q9C0D5]	pKd [21]: below the threshold; pKd [22]: 4.77; pKd [23]: 4.95; pKd [24]: below the threshold; pKd [25]: below the threshold; pKd [26]: below the threshold
